US20230192860A1 (Bristol-Myers Squibb, published 2023)
Changes are numbered by the printed parent chain.

B1: P1-070870 (P1-068761_E56N) (antibody, human IgG1, kappa, V domains shown)
VH: EVQLVESGGGLVQPGKSLRLSCAASGFTLEDEAMHWVRQAPGKGLEWVSGINWNSENIGYADSVKGRFTISRDNAKNSLYLQMNSLRTEDTALYYCAKVPGYSHGWIDAEDVWGQGTMVTVSS
VL: not shown
notes: also called P1-070870-3
B2: P1-070890 (P1-068761_E30D_E55A) (antibody, human IgG1, kappa, V domains shown)
VH: B1 VH with E30D, E56A, N57E
VL: not shown
notes: also called P1-070890-3
B3: P1-070908 (P1-068767_E55A) (antibody, human IgG1, kappa, V domains shown)
VH: B1 VH with E32Y, N52D, E56A, H104G, V112D
VL: not shown
notes: also called P1-070908-6
B4: P1-070900 (P1-068761_E56N_H100G) (antibody, human IgG1, kappa, V domains shown)
VH: B1 VH with H104G
VL: not shown
notes: also called P1-070900-3
B5: P1-070904 (P1-068767_E30D) (antibody, human IgG1, kappa, V domains shown)
VH: B1 VH with E30D, E32Y, N52D, H104G, V112D
VL: not shown
notes: also called P1-070904-3
B6: P1-070872 (P1-068761_H100G) (antibody, human IgG1, kappa, V domains shown)
VH: B1 VH with N57E, H104G
VL: not shown
notes: also called P1-070872-4
B7: P1-070878 (P1-068761_E55A_E56N) (antibody, human IgG1, kappa, V domains shown)
VH: B1 VH with E56A
VL: not shown
notes: also called P1-070878-3
B8: P1-070906 (P1-068767_D52N) (antibody, human IgG1, kappa, V domains shown)
VH: B1 VH with E32Y, H104G, V112D
VL: not shown
notes: also called P1-070906-6

Molecular target: T1, hVISTA-ECD 6-His tag (human, UniProt Q9H7M9 33-193)
T1 construct: also called monovalent hVISTA-ECD; human VISTA
T1 sequence (Q9H7M9 other isoform, or with tags, fused parts or gaps limits assumed): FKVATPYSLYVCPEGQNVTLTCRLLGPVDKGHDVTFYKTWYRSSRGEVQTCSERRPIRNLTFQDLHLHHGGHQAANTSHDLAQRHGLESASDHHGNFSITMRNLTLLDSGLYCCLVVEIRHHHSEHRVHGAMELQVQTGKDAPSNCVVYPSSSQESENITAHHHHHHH
Test: SPR, Ab on Protein A, hVISTA analyte, pH 6.0

First: B1
Second: B2
The Kd of the first is 1.5-fold higher: 32 nM for the first, 21 nM for the second.

First: B3
Second: B4
The Kd of the first is 1.7-fold lower: 10 nM for the first, 17 nM for the second. The first binds more tightly here.

First: B5
Second: B6
The Kd of the first is 2.1-fold higher: 17 nM for the first, 8.2 nM for the second.

First: B7
Second: B8
The Kd of the first is 5.5-fold higher: 33 nM for the first, 6 nM for the second. The second binds more tightly here.

B1 and B2 are within 1.5-fold of each other in koff: 0.0063 s⁻¹ for the first, 0.0081 s⁻¹ for the second.

First: B3
Second: B4
The koff of the first is 3-fold lower: 0.0028 s⁻¹ for the first, 0.0084 s⁻¹ for the second.

B5 and B6 are within 1.5-fold of each other in koff: 0.0038 s⁻¹ for the first, 0.0056 s⁻¹ for the second.

First: B7
Second: B8
The koff of the first is 3.3-fold higher: 0.0063 s⁻¹ for the first, 0.0019 s⁻¹ for the second.

Going from B1 to B2, the kon rises from 200000 M⁻¹ s⁻¹ to 390000 M⁻¹ s⁻¹ (1.9-fold).

Going from B3 to B4, the kon rises from 270000 M⁻¹ s⁻¹ to 500000 M⁻¹ s⁻¹ (1.9-fold).

Compared with B5, B6 is 3-fold higher in kon: 230000 M⁻¹ s⁻¹ for the first, 680000 M⁻¹ s⁻¹ for the second.

First: B7
Second: B8
The kon of the first is 1.6-fold lower: 190000 M⁻¹ s⁻¹ for the first, 310000 M⁻¹ s⁻¹ for the second.

Molecular target: T1, hVISTA-ECD 6-His tag
Test: SPR; KD at pH 6.45 over KD at pH 6.0 (head prints 7.4)

Compared with B1, B2 is higher in “7.4 KD/ 6.0 KD” value: 4.6 for the first, 6.3 for the second.

Compared with B3, B4 is higher in “7.4 KD/ 6.0 KD” value: 5.2 for the first, 8 for the second.

Compared with B5, B6 is higher in “7.4 KD/ 6.0 KD” value: 4.1 for the first, 8.3 for the second.

Going from B7 to B8, the “7.4 KD/ 6.0 KD” value rises from 4.9 to 5.1.

Molecular target: T1, hVISTA-ECD 6-His tag
Test: SPR; kd at pH 6.45 over kd at pH 6.0 (head prints 7.4)
Protocol: (§1) Further binding kinetic experiments were performed at various pHs on VISTA antibodies described herein by SPR as generally described in Example 9 above. Antibodies were normalized to 50 nM concentration in PBST pH 7.4 and captured on a Protein A CM5 chip (ID 4931) by injecting for 45 seconds at a 5 µL/min flow rate. An 8-point human VISTA titration ([…]) was prepared in PBST at pH 7.4, 6.9, 6.45, and 6.0. Titrations were injected over the captured antibodies for 180 seconds at 30 µL/min. Sensorgrams were fit to a 1:1 binding model in T200 evaluation software and the kinetic constants were reported.
(§2) Each table reports the data at one of the four tested pHs (7.4, 6.9, 6.45, and 6.0, respectively). The 8-point hVISTA titration used in these assays was chosen to provide increased confidence in kinetic values reported at neutral pH conditions. A relatively stringent cutoff for non-binding was applied in this assay. Certain progeny of P1-061029 antibody (P1-068757, ‘759, ‘765, ‘771, and ‘775) show no binding to hVISTA at micromolar concentrations at pH 7.4, while ‘761 and ‘767 show no binding to hVISTA at 100 nM at pH 7.4 but do show binding to hVISTA at micromolar concentrations.

Compared with B1, B2 is higher in “7.4 kd/ 6.0 kd” value: 1.9 for the first, 3.9 for the second.

First: B3
Second: B4
The “7.4 kd/ 6.0 kd” value of the first is lower: 2.2 for the first, 7.1 for the second.

First: B5
Second: B6
The “7.4 kd/ 6.0 kd” value of the first is lower: 2.3 for the first, 4.5 for the second.

Going from B7 to B8, the “7.4 kd/ 6.0 kd” value rises from 2 to 2.1.

Molecular target: T1, hVISTA-ECD 6-His tag
Test: SPR; kd at pH 6.9 over kd at pH 6.0 (head prints 7.4)
Protocol: as §1, §2

Compared with B1, B2 is lower in “7.4 kd/ 6.0 kd” value: 7.9 for the first, 4.9 for the second.

Compared with B3, B4 is lower in “7.4 kd/ 6.0 kd” value: 4.4 for the first, 3.7 for the second.

Going from B5 to B6, the “7.4 kd/ 6.0 kd” value falls from 7.2 to 5.1.

First: B7
Second: B8
The “7.4 kd/ 6.0 kd” value of the first is higher: 4.5 for the first, 4.4 for the second.

Molecular target: T1, hVISTA-ECD 6-His tag
Test: SPR, Ab on Protein A, hVISTA analyte, pH 6.45

B1 and B2 are within 1.5-fold of each other in Kd: 150 nM for the first, 130 nM for the second.

Compared with B3, B4 is 2.4-fold higher in Kd: 54 nM for the first, 130 nM for the second. The first binds more tightly here.

B5 and B6 are the same in Kd: 68 nM for the first, 68 nM for the second.

Going from B7 to B8, the Kd falls from 160 nM to 31 nM (5.2-fold).

Compared with B1, B2 is 2.7-fold higher in koff: 0.012 s⁻¹ for the first, 0.032 s⁻¹ for the second.

Compared with B3, B4 is 10-fold higher in koff: 0.006 s⁻¹ for the first, 0.06 s⁻¹ for the second.

Compared with B5, B6 is 2.9-fold higher in koff: 0.0086 s⁻¹ for the first, 0.025 s⁻¹ for the second.

Going from B7 to B8, the koff falls from 0.012 s⁻¹ to 0.0039 s⁻¹ (3.1-fold).

First: B1
Second: B2
The kon of the first is 3-fold lower: 80000 M⁻¹ s⁻¹ for the first, 240000 M⁻¹ s⁻¹ for the second.

First: B3
Second: B4
The kon of the first is 4.1-fold lower: 110000 M⁻¹ s⁻¹ for the first, 450000 M⁻¹ s⁻¹ for the second.

Compared with B5, B6 is 2.8-fold higher in kon: 130000 M⁻¹ s⁻¹ for the first, 360000 M⁻¹ s⁻¹ for the second.

First: B7
Second: B8
The kon of the first is 1.7-fold lower: 78000 M⁻¹ s⁻¹ for the first, 130000 M⁻¹ s⁻¹ for the second.

Molecular target: T1, hVISTA-ECD 6-His tag
Test: SPR; KD at pH 6.9 over KD at pH 6.0 (head prints 7.4)
Protocol: as §1, §2

Going from B1 to B2, the “7.4 KD/ 6.0 KD” value falls from 316 to 211.

Going from B3 to B4, the “7.4 KD/ 6.0 KD” value rises from 23 to 222.

Compared with B5, B6 is higher in “7.4 KD/ 6.0 KD” value: 14.9 for the first, 1820 for the second.

Going from B7 to B8, the “7.4 KD/ 6.0 KD” value falls from 301 to 36.5.

Molecular target: T1, hVISTA-ECD 6-His tag
Test: SPR, Ab on Protein A, hVISTA analyte, pH 6.9
Protocol: as §1, §2

Going from B1 to B2, the Kd falls from 10000 nM to 4400 nM (2.3-fold).

Compared with B3, B4 is 15-fold higher in Kd: 240 nM for the first, 3700 nM for the second. The first binds more tightly here.

First: B5
Second: B6
The Kd of the first is 60-fold lower: 250 nM for the first, 15000 nM for the second.

First: B7
Second: B8
The Kd of the first is 45-fold higher: 9800 nM for the first, 220 nM for the second.

B1 and B2 are within 1.5-fold of each other in koff: 0.049 s⁻¹ for the first, 0.04 s⁻¹ for the second.

Going from B3 to B4, the koff rises from 0.012 s⁻¹ to 0.031 s⁻¹ (2.6-fold).

B5 and B6 are the same in koff: 0.028 s⁻¹ for the first, 0.028 s⁻¹ for the second.

Compared with B7, B8 is 3.3-fold lower in koff: 0.028 s⁻¹ for the first, 0.0084 s⁻¹ for the second.

Compared with B1, B2 is 1.8-fold higher in kon: 4900 M⁻¹ s⁻¹ for the first, 9000 M⁻¹ s⁻¹ for the second.

First: B3
Second: B4
The kon of the first is 6-fold higher: 51000 M⁻¹ s⁻¹ for the first, 8500 M⁻¹ s⁻¹ for the second.

Going from B5 to B6, the kon falls from 110000 M⁻¹ s⁻¹ to 1900 M⁻¹ s⁻¹ (58-fold).

Going from B7 to B8, the kon rises from 2900 M⁻¹ s⁻¹ to 38000 M⁻¹ s⁻¹ (13-fold).
